Drawing on patent publication US20100055104A1 (NEUTEC PHARMA, published 2010), this text covers Kd, koff and kon for one molecule.

Ends that are not written are not given here.

Test [1] deals with T1, biotinylated LKVIRK peptide (SEQ ID NO: 4) (also: biotinylated, site not given here).
T1 construct: Captured non-covalently on a Sensor Chip SA; Any spacer between the biotin and the peptide is not described; also called immobilised peptide
T1 peptide: LKVIRK
Briefly: Biacore SPR; biotinylated peptide captured on SA chip, Mycograb injected; 1:1 Langmuir fit.

For test [2], the target named is T2, recombinant hsp90 from Candida albicans (Candida albicans, UniProt P46598 1-707).
T2 construct: also called Candida hsp90; Candida albicans hsp90
The test is described as follows: Biacore SPR; Candida hsp90 amine-coupled to CM-5 chip, Mycograb injected; 1:1 Langmuir fit.

The target in the next test is T3, recombinant human hsp90α (human, UniProt P07900 1-732, limits assumed).
T3 construct: also called human hsp90a; human hsp 90 alpha
The test is described as follows: Biacore SPR; human hsp90α amine-coupled to CM-5 chip, Mycograb injected; 1:1 Langmuir fit.

T2 sequence (P46598 whole entry): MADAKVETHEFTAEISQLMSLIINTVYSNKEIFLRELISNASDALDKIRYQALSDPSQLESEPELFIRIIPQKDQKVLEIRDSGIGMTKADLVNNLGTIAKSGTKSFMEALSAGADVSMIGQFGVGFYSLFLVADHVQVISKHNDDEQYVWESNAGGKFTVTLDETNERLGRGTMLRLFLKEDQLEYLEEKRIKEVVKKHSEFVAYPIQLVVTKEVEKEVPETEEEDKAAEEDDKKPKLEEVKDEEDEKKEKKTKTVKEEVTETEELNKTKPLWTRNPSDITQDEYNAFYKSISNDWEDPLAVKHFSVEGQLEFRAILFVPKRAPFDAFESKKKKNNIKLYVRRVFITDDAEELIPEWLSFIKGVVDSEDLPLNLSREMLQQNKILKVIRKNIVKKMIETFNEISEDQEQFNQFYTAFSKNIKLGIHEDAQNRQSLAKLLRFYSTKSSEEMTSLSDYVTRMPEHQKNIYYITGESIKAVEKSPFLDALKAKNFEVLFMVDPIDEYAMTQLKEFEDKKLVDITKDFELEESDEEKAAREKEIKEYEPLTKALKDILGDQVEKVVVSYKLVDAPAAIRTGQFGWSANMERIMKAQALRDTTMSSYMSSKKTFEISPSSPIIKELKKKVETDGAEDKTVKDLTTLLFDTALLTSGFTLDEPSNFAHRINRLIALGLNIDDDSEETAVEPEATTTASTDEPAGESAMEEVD

B1: Mycograb® (antibody component, SEQ ID NO: 1) (antibody)
chain: HMAEVQLVESGAEVKKPGESLRISCKGSGCIISSYWISWVRQMPGKGLEWMGKIDPGDSYINYSPSFQGHVTISADKSINTAYLQWNSLKASDTAMYYCARGGRDFGDSFDYWGQGTLVTVSSGGGGSGGGGSGGGGSDVVMTQSPSFLSAFVGDRITITCRASSGISRYLAWYQQAPGKAPKLLIYAASTLQTGVPSRFSGSGSGTEFTLTINSLQPEDFATYYCQHLNSYPLTFGGGTKVDIKRAA
notes: Formulated as described in WO-A-01/76627; also called Mycogab; Mycograbg
In the case of B1, the dissociation constant Kd in test [1] came out at 28.6 nM; in test [2] it was 717 nM; in the test with recombinant human hsp90α, 3270 nM. Also, the figures for the koff (in test [1]; in test [2]; with recombinant human hsp90α) were 0.000647 s⁻¹, 0.000267 s⁻¹ and 0.00321 s⁻¹, respectively. For the same molecule, the figures for the kon (in test [1]; in test [2]; with recombinant human hsp90α) were 22600 M⁻¹ s⁻¹, 373 M⁻¹ s⁻¹ and 981 M⁻¹ s⁻¹, respectively.
